Source: patent US4774321A, “DP100 EGF and insulin-binding protein from Drosophila cells” (Massachusetts Institute of Technology, priority 1986, dated 1988)
Where two headings read alike, the source gives them in different places.

What was measured:
[1] = target: T1, dp100 (Drosophila melanogaster, UniProt P22817); experiment: Affinity labelling of anti-EGF receptor immunoprecipitates (dp100) with 125I-labelled growth factors; format: binding; details: for affinity labelling (crosslinking) of dp100 by 125I-labelled ligand: disuccinimidyl suberate crosslinking, immunoprecipitates
T1 construct: detergent-solubilized membranes from Drosophila-cultured cell lines are immunoprecipitated with anti-EGF receptor antiserum; endogenous in cells; host or cells: Drosophila Schneider L2 and Kc cells (solubilized membrane or cytoplasmic protein, immunoprecipitated)
T1 sequence (P22817 1-990): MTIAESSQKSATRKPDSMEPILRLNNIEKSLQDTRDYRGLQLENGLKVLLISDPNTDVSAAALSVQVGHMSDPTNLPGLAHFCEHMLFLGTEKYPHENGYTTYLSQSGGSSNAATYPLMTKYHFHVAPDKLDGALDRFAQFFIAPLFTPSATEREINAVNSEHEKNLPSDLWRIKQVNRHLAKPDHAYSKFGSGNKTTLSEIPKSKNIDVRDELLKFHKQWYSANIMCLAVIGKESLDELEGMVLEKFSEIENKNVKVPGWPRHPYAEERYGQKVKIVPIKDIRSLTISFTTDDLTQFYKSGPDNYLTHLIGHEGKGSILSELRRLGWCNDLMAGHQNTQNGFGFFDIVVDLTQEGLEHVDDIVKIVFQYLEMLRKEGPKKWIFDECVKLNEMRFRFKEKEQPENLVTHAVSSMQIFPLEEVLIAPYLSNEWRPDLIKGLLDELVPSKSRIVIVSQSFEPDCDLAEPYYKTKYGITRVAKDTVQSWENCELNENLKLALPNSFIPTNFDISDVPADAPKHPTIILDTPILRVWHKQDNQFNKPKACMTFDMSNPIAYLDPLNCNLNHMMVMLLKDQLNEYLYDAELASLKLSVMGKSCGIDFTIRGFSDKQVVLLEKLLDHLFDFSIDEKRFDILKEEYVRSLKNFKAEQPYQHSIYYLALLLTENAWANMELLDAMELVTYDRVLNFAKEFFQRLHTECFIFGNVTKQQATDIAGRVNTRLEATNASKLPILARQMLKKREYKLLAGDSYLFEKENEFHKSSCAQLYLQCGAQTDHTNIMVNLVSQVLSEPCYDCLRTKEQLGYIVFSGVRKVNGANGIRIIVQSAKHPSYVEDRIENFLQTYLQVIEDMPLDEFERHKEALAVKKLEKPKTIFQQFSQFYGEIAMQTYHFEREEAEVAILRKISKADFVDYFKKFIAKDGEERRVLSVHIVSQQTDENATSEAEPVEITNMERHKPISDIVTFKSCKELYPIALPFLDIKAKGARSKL
Procedure: (§1) Affinity Labeling of Immunoprecipitates: The dp100 protein is found in the membranes and cytoplasm of the Drosophila cells. Membrane protein is solubilized in 1 to 2% Triton X-100, 10% glycerol, 50 mM Hepes, pH 7.0, for 60 min at 4° C. Typically, 500 microgram of Drosophila membrane protein or 100 microgram of Swiss 3T3 membrane protein are used per sample. Unsolubilized material is removed by centrifugation at 12,000 x g for 10 min. The solublized membrane protein or cytoplasmic protein is diluted 1:2 and precleared by incubation with protein A-Sepharose beads (Pharmacia Fine Chemical Co., Piscataway, NJ). The cleared supernatants are treated overnight with anti-EGF receptor antiserum (1:10 dilution), anti-insulin receptor antiserum (1:50), or rabbit preimmune serum (1:10), and the product precipitated with protein A-Sepharose beads. The immunopellets are washed three times with 50 mM Hepes, pH 7.0, 50 mM NaCl, 10% glycerol, 0.1% Triton X-100 and resuspended in 25 mM Hepes, 50 mM NaCl, 0.1% Triton X-100, 1 mg of bovine serum albumin per ml. 125I-EGF (35 nM) or 125I-insulin (20 nM) is added, and the samples incubated 60 min at 15° C. Binding specificity is tested by the simultaneous addition of a 1000-fold excess of unlabeled ligand (30 microM) and labeled ligand. Bound growth factor is crosslinked to the immunoprecipitates by addition of disuccinimidyl suberate to 0.4 mM and incubation for 15 min at 0° C. The samples are then centrifuged and the supernatant removed. The pellets are resuspended in sample buffer (33 mM Tris.HCl, pH 6.5, 2% NaDodS04, 10% glycerol, 0.1% bromophenol blue, 2% 2-mercaptoethanol) and boiled. The protein A-Sepharose beads are removed by centrifugation, and the supernatants run on 6.5% polyacrylamide/NaDodS04 gels.
To increase sensitivity of detection, detergent-solubilized membranes from Drosophila-cultured cell lines are immunoprecipitated with anti-EGF receptor antiserum, anti-insulin receptor antiserum, or rabbit preimmune serum prior to affinity labeling. Radiolabeled growth factors are added to the immune precipitates in the presence or absence of excess growth factor, allowed to bind at 15° C., and then crosslinked with disuccinimidyl suberate. Samples are analyzed by separation on NaDodSO4 /PAGE and subsequent autoradiography. […] However, the anti-EGF receptor antiserum does specifically immunoprecipitate dp100. Similar results are observed when membrane proteins from two different Drosophila cell lines, Schneider L2 and Kc, are analyzed.
Controls with preimmune serum fail to immunoprecipitate dp100 or any other growth factor binding protein.

[2] = target: T1, dp100; experiment: Competitive affinity labelling of immunoprecipitated dp100 with 125I-insulin as label; format: binding; details: for Kd: competition with 125I-insulin
Procedure: as §1, with “The cleared supernatants are treated overnight with anti-EGF receptor antiserum (1:10 dilution), anti-insulin receptor antiserum (1:50), or rabbit preimmune serum (1:10), and the product precipitated with protein A-Sepharose beads.” left out, “125I-EGF (35 nM) or 125I-insulin (20 nM) is added, and the samples incubated 60 min at 15° C.” left out
To ensure linearity, several exposures are taken. Dissociation constants are determined by statistical analysis.
The dissociation constants ranged from 10^-6 M to 10^-9 M.

[3] = target: T2, EGF receptor in human epithelial carcinoma A431 cells (Homo sapiens, UniProt P00533); experiment: Competition with 125I-EGF for binding to the EGF receptor in A431 cells; details: 4° C., 3 hr, FIG. 2
T2 construct: endogenous in cells; host or cells: A431 cells (American Type Culture Collection)
Procedure: FIG. 2 is a graph of the competitive binding of murine EGF and synthetic human TGF-alpha to the EGF receptor in A431 cells. ^125 I-EGF (10^5 cpm) was incubated with A431 cells (2×10^4 cells/well) at 4° C. for 3 hr in the presence of different M concentrations of unlabelled EGF ( ) or TGF-alpha ( ). The percent of binding as compared to the control is the mean of duplicate determinations with the error less than 10%.
Growth factor binding to A431 cells: A431 cells are grown in monolayer and ^125 I-labelled EGF bound to the cells as described by B. Friedman et al in Proc. Natl. Acad. Sci. U.S.A. 81, 3034-3039 (1984).
To ensure that the difference in the binding affinities of EGF and TGF-alpha for dp100 reflects a property of the protein rather than the particular growth factor preparations, the ability of unlabelled EGF and TGF-alpha to compete with ^125 I-labelled EGF for binding to the EGF receptor in human epithelial carcinoma A431 cells was determined.

[4] = target: T1, dp100; experiment: Affinity labelling of intact Drosophila membranes; format: binding
[5] = target: T3, 170 kDa EGF receptor (Mus musculus, UniProt Q01279); experiment: Affinity labelling of EGF receptor immunoprecipitated from murine 3T3 fibroblast membranes; format: binding
T3 construct: 170 kDa EGF receptor immunoprecipitated from murine 3T3 fibroblast membranes; endogenous in cells; host or cells: Swiss 3T3 mouse fibroblasts (solubilized membranes, immunoprecipitated)
Procedure: as §1, with “Binding specificity is tested by the simultaneous addition of a 1000-fold excess of unlabeled ligand (30 microM) and labeled ligand. Bound growth factor is crosslinked to the immunoprecipitates by addition of disuccinimidyl suberate to 0.4 mM and incubation for 15 min at 0° C. The samples are then centrifuged and the supernatant removed. The pellets are resuspended in sample buffer (33 mM Tris.HCl, pH 6.5, 2% NaDodS04, 10% glycerol, 0.1% bromophenol blue, 2% 2-mercaptoethanol) and boiled. The protein A-Sepharose beads are removed by centrifugation, and the supernatants run on 6.5% polyacrylamide/NaDodS04 gels.” left out
The dp100 has a higher affinity for insulln than EGF. First, in crosslinking experiments with membranes, binding of ^125 I-insulin but not ^125 I-EGF is detected.

[6] = densitometric scanning of autoradiograms, read-out: Dissociation constants for ligand binding to dp100, KD
[7] = read-out: dissociation constant (Kd) for binding to dp100

## EGF: murine epidermal growth factor, receptor grade and HPLC purified
[1]
  affinity labelling (crosslinking) of dp100 by 125I-labelled ligand: can be affinity labelled
  blocking of 125I-insulin and 125I-EGF binding to dp100 by excess unlabeled ligand: can block binding
[2]; FIG. 3
  affinity for dp100 compared with recombinant TGF-alpha: within the same order of magnitude as the recombinant form
[2]; [6]
  Kd: 1300 nM
[3]
  affinity for the mammalian EGF receptor, EGF versus TGF-alpha preparations: no significant difference
[4]
  affinity labelling by 125I-ligand after incubation with intact Drosophila membranes: is not detected
[5]; excess unlabeled ligand
  blocking of 125I-EGF affinity labeling of the murine EGF receptor by excess ligand: can be blocked by excess EGF
[5]; immunoprecipitated by anti-EGF receptor antiserum
  crosslinking of 125I-ligand to the 170 kDa EGF receptor: can be crosslinked

## IGF-I: insulin-like growth factor-I (Amgen)
[1]
  affinity labelling (crosslinking) of dp100 by 125I-labelled ligand: can be affinity labelled
[2]; [6]
  Kd: 500 nM

## INSULIN: porcine insulin from Biomedical Technologies Inc.
[1]; competition with unlabeled ligand
  inhibition of 125I-insulin and 125I-EGF binding to dp100, comparison of unlabeled ligands: more effective than EGF
[1]
  affinity labelling (crosslinking) of dp100 by 125I-labelled ligand: can be affinity labelled
  blocking of 125I-insulin and 125I-EGF binding to dp100 by excess unlabeled ligand: can block binding
[4]
  affinity labelling by 125I-ligand after incubation with intact Drosophila membranes: can be detected

## NGF: Nerve growth factor
[2]; [7]
  Kd: > 1000 nM

## PDGF
[1]
  affinity labelling (crosslinking) of dp100 by 125I-labelled ligand: neither ^125 I-TGF-beta nor ^125 I-PDGF, two structurally unrelated growth factors, can be crosslinked

## TGF-alpha: Synthetic human transforming growth factor-alpha, synthesized chemically (J. Tam, Rockefeller University)
[1]
  affinity labelling (crosslinking) of dp100 by 125I-labelled ligand: can be affinity labelled
[2]
  affinity for dp100 relative to that for EGF: three orders of magnitude higher
[2]; FIG. 3
  affinity for dp100 relative to human recombinant TGF-alpha: 100-1000 times
[2]; [6]
  Kd: 5 nM
[2]; [7]
  Kd: 5 nM
[3]
  affinity for the mammalian EGF receptor, EGF versus TGF-alpha preparations: no significant difference

## TGF-beta: 125I-TGF-beta, structurally unrelated growth factor
[1]
  affinity labelling (crosslinking) of dp100 by 125I-labelled ligand: neither ^125 I-TGF-beta nor ^125 I-PDGF, two structurally unrelated growth factors, can be crosslinked

## glucagon: glucagon (Sigma Chemical Co.)
[2]; [7]
  Kd: > 1000 nM

## native TGF-alpha: native transforming growth factor-alpha
[2]; FIG. 3
  affinity for dp100 compared with recombinant TGF-alpha: within the same order of magnitude as the recombinant form
